In the data set the target is SARS-CoV-2 spike protein (original strain) (SARS-CoV-2, UniProt P0DTC2 P0DTC2:14-1273). The experiment in a line: flow.

Here are results for one molecule from patent publication US20250207140 (published 2025).

B1: SEQ ID NO: 14 aptamer (72 nt truncation of SEQ ID NO: 1) (ssRNA)
RNA: GGGAGAGCGGAAGCGUGCUGGGCCCCUUUGACCAUAGGAGGCAAGUCUUAUGUUCAAACUGGUCCAUAACCC
modifications: 2'-F pyrimidines
For the molecule B1, the Kd amounted to 20.7 nM.
